The target of this experiment is T1, FLAG-BirA(R118G)-TBL1XR1 Y446S (human, UniProt Q9BZK7 1-514, Y446S).
T1 sequence (looked up): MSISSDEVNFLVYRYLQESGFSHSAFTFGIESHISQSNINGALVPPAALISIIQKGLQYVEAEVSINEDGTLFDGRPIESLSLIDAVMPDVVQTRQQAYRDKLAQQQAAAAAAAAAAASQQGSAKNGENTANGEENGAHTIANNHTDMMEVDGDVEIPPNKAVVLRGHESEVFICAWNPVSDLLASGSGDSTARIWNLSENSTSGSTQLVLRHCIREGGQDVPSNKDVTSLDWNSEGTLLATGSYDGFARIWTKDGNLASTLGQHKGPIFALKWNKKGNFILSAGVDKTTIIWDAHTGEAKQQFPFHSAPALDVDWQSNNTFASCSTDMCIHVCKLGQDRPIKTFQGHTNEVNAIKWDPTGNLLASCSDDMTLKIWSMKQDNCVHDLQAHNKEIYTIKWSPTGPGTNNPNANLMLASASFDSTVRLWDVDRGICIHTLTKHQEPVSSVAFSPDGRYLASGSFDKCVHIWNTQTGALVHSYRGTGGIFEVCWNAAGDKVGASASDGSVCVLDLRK
Put plainly: proximity labelling.

B1: BACH2 (endogenous) (natural protein)
chain: not shown
On to B1, for which the “fold gain of interaction against TBL1XR1 WT” value is approximately 6 fold.

These data come from paper PMC7384961 (Cell, 2020).
